Reference: article PMC6262872, “DARPins recognize mTFP1 as novel reagents for in vitro and in vivo protein manipulations” (Biology Open, 2018)

Molecular target: T1, monomeric teal fluorescent protein 1 (mTFP1), N-terminally hexa-His-SBP-tagged
T1 construct: mTFP1, engineered monomeric teal fluorescent protein (Ai et al., 2006); PDB 2HQK is the cited mTFP1 structure; also called SBP-tagged mTFP1; source: E. coli BL21(DE3), purified (Ni-NTA)
Test: fluorescence polarisation; fluorescence anisotropy; constant 15 nM mTFP1 titrated with a dilution series of DARPin; non-linear fit
Conditions: both partners purified

Kd: ~88 nM
B1: DARPin 1238_G01 (N-terminal His8, C-terminal FLAG) (designed binder)
chain: GSDLGKKLLEAARAGQDDEVRILMANGADVNAEDWMGATPLHLAAQSGHLEIVEVLLKTGADVNAHDAFGWTPLHLAASQGHLEIVEVLLKAGADVNATDMVGRTPLHLAARRGHLEIVEVLLKHGADVNAQDKFGKTPFDLAIDNGNEDIAEVLQKAAKLN
modifications: N-terminal MRGS-His8 and C-terminal FLAG tags left out; the GP cloning residues of the crystal construct are also left out
